Consider 28 substances from article PMC11339918, “Extracellular Domain of IL-10 Receptor Chain-2 (IL-10R2) and Its Arginine-Containing Peptides Are Susceptible Substrates for Human Prostate Kallikrein-2 (KLK2)” (Biochemistry, 2024).

Entries after “also recorded” stand apart in the source; their conditions may differ. Non-standard residues stand in square brackets, D forms with d. No end group written: not given here. *: point of attachment. EDDnp = O=[N+]([O-])c1ccc(NCCN*)c([N+](=O)[O-])c1; 2Abz = Nc1ccccc1C(=O)O

T1 sequence (P20151 25-261): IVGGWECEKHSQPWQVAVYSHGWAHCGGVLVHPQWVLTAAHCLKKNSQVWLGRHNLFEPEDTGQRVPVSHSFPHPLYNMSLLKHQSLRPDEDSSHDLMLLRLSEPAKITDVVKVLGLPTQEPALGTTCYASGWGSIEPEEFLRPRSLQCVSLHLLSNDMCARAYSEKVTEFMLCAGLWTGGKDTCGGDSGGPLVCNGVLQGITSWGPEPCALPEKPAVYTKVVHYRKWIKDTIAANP

One assay concerns the target T1, Recombinant KLK2 (Homo sapiens, UniProt P20151).
T1 construct: made in house; host or cells: baculovirus-insect cell line system
The experiment in a line: Hydrolysis of FRET peptides by recombinant KLK2 (kinetic parameters). The class given is biochemical. The following applies: 20 mM Tris–HCl, pH 8.0, 1 M sodium citrate. The source says: Obtained from a baculovirus-insect cell line system, purified, and activated as previously reported,[14] MUGB (4-methylumbelliferyl p-guanidino benzoate hydrochloride) was used for the spectrofluorimetric determination of molar concentrations of active KLK2.[15] KLK3 was obtained and assayed as previously reported.[3]
All of the FRET peptides were obtained by solid-phase peptide synthesis. The purity of FRET peptides to 95% or higher was obtained by semipreparative HPLC on a C18 reversed-phase column and used as protease substrates, as previously reported.[5] Details about the purification and quality of the FRET peptides are provided in the Supporting Information. The enzymatic kinetic measurements were all performed with FRET peptides as previously described.[5]
Five series of FRET peptides derived from Abz-KLRSSK-Q-EDDnp were assayed with KLK2 in 20 mM Tris–HCl, pH 8.0, and 1 M sodium citrate. […] The specificity of subsites S3, S2, S1’, and S2’ was explored by the FRET peptide series Abz-XLRSSKQ-EDDnp (for S3), Abz-KXRSSKQ-EDDnp (for S2), Abz-KLRXSKQ-EDDnp (for S1’), and Abz-KLRSXKQ-EDDnp (for S2’). All of them were hydrolyzed only at R–S or R–X peptide bonds, and the kinetic parameters for their hydrolysis by KLK2 are listed in Table 1.
As for “Abz-KLRSSKQ-EDDnp [parent FRET peptide, cleaved at the R–S peptide bond by KLK2]”, the kcat/Km is on record as 1738 mM^–1 s^–1.

Still in this assay, the particulars now being: FRET peptides derived from the IL-10R2 ectodomain.
Consider “Abz-LSKYGD-Q-EDDnp [FRET peptide derived from the IL-10R2 ectodomain, ^79LSKYG^84D]”, for which the “hydrolysis by KLK2 (in words)” value was “resistant to hydrolysis; also recorded: no hydrolysis”.

Still in this assay, the particulars now being: Table 3, FRET peptides derived from the IL-10R2 ectodomain.
The Km is the substrate concentration at which the rate is half of its maximum. As for “Abz-TLRVRAE-Q-EDDnp [FRET peptide derived from the IL-10R2 ectodomain, ^86TLRVRA^92E]”, the Km is 1.34 µM, the kcat is given as 2.47 s^–1 and the kcat/Km was found to be 1843 mM s–1.

Staying with this assay, now noted: pH 8.0, 20 mM Tris–HCl, 1 M sodium citrate, 37 °C, KLK2 1.6 nM; three enzymatic reactions, standard errors 5% or less.
Turning to “Abz-KLRSXKQ-EDDnp, X = L: FRET peptide, S2’ series, X = L ([2Abz]KLRSLKQ-EDDnp)”, the Km amounted to 2.8 µM, the kcat was found to be 8.5 s^–1 and the kcat/Km was 3036 s^–1 mM^–1.
Taken in the same sequence, the figures for “Abz-KLRXSKQ-EDDnp, X = F: FRET peptide, S1’ series, X = F ([2Abz]KLRFSKQ-EDDnp)” were 1.2 µM, 3.5 s^–1 and 2917 s^–1 mM^–1.
Turning to “Abz-XLRSSKQ-EDDnp, X = R: FRET peptide, S3 series, X = R (Abz-RLRSSKQ-EDDnp)”, the Km came out at 3.9 µM, the kcat worked out at 22.3 s^–1 and the kcat/Km is listed as 5718 s^–1 mM^–1.
Regarding “Abz-KXRSSKQ-EDDnp, X = G: FRET peptide, S2 series, X = G ([2Abz]KGRSSKQ-EDDnp)”, the Km is 12.4 µM, the kcat worked out at 1.0 s^–1 and the kcat/Km turned out to be 81 s^–1 mM^–1.
In the same order, the values of “Abz-KLRSXKQ-EDDnp, X = A: FRET peptide, S2’ series, X = A ([2Abz]KLRSAKQ-EDDnp)” are 3.8 µM, 12.2 s^–1 and 3211 s^–1 mM^–1.
Taken in the same sequence, the figures for “Abz-KLRSXKQ-EDDnp, X = F: FRET peptide, S2’ series, X = F ([2Abz]KLRSFKQ-EDDnp)” were 2.4 µM, 12.4 s^–1 and 5167 s^–1 mM^–1.
In the same order, the values of “Abz-KXRSSKQ-EDDnp, X = K: FRET peptide, S2 series, X = K (Abz-KKRSSKQ-EDDnp)” are 7.2 µM, 3.0 s^–1 and 417 s^–1 mM^–1.
In the case of “Abz-KXRSSKQ-EDDnp, X = V: FRET peptide, S2 series, X = V (Abz-KVRSSKQ-EDDnp)”, the Km amounted to 8.5 µM, the kcat came out at 9.9 s^–1 and the kcat/Km stood at 1165 s^–1 mM^–1.
In the same order, the values of “Abz-KLRSXKQ-EDDnp, X = Q: FRET peptide, S2’ series, X = Q ([2Abz]KLRSQKQ-EDDnp)” are 5.2 µM, 6.5 s^–1 and 1250 s^–1 mM^–1.
Taken in the same sequence, the figures for “Abz-KXRSSKQ-EDDnp, X = A: FRET peptide, S2 series, X = A [Abz-KXRSSKQ-EDDnp, X = A] ([2Abz]KARSSKQ-EDDnp)” were 4.8 µM, 2.2 s^–1 and 458 s^–1 mM^–1.
In the same order, the values of “Abz-KLRXSKQ-EDDnp, X = V: FRET peptide, S1’ series, X = V ([2Abz]KLRVSKQ-EDDnp)” are 2.2 µM, 8.1 s^–1 and 3682 s^–1 mM^–1.
With “Abz-KLRSXKQ-EDDnp, X = E: FRET peptide, S2’ series, X = E ([2Abz]KLRSEKQ-EDDnp)”, the Km was determined as 8 µM, the kcat is on record as 7.1 s^–1 and the kcat/Km is listed as 888 s^–1 mM^–1.
Taken in the same sequence, the figures for “Abz-KXRSSKQ-EDDnp, X = H: FRET peptide, S2 series, X = H (N-terminal Abz, C-terminal EDDnp; X = H)” were 9.6 µM, 4.7 s^–1 and 490 s^–1 mM^–1.
For “Abz-KLRSXKQ-EDDnp, X = V: FRET peptide, S2’ series, X = V ([2Abz]KLRSVKQ-EDDnp)”, the Michaelis constant (Km) came out at 4.2 µM, the kcat turned out to be 15.3 s^–1 and the kcat/Km was found to be 3643 s^–1 mM^–1.
Taken in the same sequence, the figures for “Abz-KLRXSKQ-EDDnp, X = L: FRET peptide, S1’ series, X = L ([2Abz]KLRLSKQ-EDDnp)” were 3.3 µM, 6.7 s^–1 and 2030 s^–1 mM^–1.
In the same order, the values of “Abz-KLRSSKQ-EDDnp [parent FRET peptide, cleaved at the R–S peptide bond by KLK2]” are 6.5 µM, 11.3 s^–1 and 1738 s^–1 mM^–1.
Taken in the same sequence, the figures for “Abz-KXRSSKQ-EDDnp, X = Q: FRET peptide, S2 series, X = Q [Abz-KXRSSKQ-EDDnp, X = Q] (Abz-KQRSSKQ-EDDnp)” were 8.3 µM, 6.4 s^–1 and 771 s^–1 mM^–1.
In the case of “Abz-KLRSXKQ-EDDnp, X = G: FRET peptide, S2’ series, X = G ([2Abz]KLRSGKQ-EDDnp)”, the Km amounted to 4.5 µM, the kcat worked out at 3.5 s^–1 and the kcat/Km came out at 778 s^–1 mM^–1.
Taken in the same sequence, the figures for “Abz-KXRSSKQ-EDDnp, X = F: FRET peptide, S2 series, X = F ([2Abz]KFRSSKQ-EDDnp)” were 1.6 µM, 4.1 s^–1 and 2563 s^–1 mM^–1.
Taken in the same sequence, the figures for “Abz-KLRXSKQ-EDDnp, X = Q: FRET peptide, S1’ series, X = Q ([2Abz]KLRQSKQ-EDDnp)” were 6.1 µM, 8.5 s^–1 and 1393 s^–1 mM^–1.
Taken in the same sequence, the figures for “Abz-KLRXSKQ-EDDnp, X = I: FRET peptide, S1’ series, X = I ([2Abz]KLRISKQ-EDDnp)” were 1.8 µM, 7.2 s^–1 and 4000 s^–1 mM^–1.
As to “Abz-KXRSSKQ-EDDnp, X = I: FRET peptide, S2 series, X = I [Abz-KXRSSKQ-EDDnp, X = I] (Abz-KIRSSKQ-EDDnp)”, the Km was found to be 4.5 µM, the kcat turned out to be 4.7 s^–1 and the kcat/Km is given as 1044 s^–1 mM^–1.
Taken in the same sequence, the figures for “Abz-KLRXSKQ-EDDnp, X = H: FRET peptide, S1’ series, X = H (N-terminal Abz, C-terminal EDDnp; X = H)” were 4.3 µM, 8.0 s^–1 and 1860 s^–1 mM^–1.
Taken in the same sequence, the figures for “Abz-KLRSXKQ-EDDnp, X = N: FRET peptide, S2’ series, X = N ([2Abz]KLRSNKQ-EDDnp)” were 8.8 µM, 4.9 s^–1 and 557 s^–1 mM^–1.
As to “Abz-XLRSSKQ-EDDnp, X = Q: FRET peptide, S3 series, X = Q (Abz-QLRSSKQ-EDDnp)”, the Km turned out to be 5.9 µM, the kcat was 25.7 s^–1 and the kcat/Km was 4356 s^–1 mM^–1.
Consider “Abz-XLRSSKQ-EDDnp, X = S: FRET peptide, S3 series, X = S (Abz-SLRSSKQ-EDDnp)”, for which the Km came out at 3 µM, the kcat is reported as 29.8 s^–1 and the kcat/Km was found to be 9933 s^–1 mM^–1.
